One data set deals with T1, Rubicon (UniProt Q92622 1-972, limits assumed).
T1 sequence (looked up): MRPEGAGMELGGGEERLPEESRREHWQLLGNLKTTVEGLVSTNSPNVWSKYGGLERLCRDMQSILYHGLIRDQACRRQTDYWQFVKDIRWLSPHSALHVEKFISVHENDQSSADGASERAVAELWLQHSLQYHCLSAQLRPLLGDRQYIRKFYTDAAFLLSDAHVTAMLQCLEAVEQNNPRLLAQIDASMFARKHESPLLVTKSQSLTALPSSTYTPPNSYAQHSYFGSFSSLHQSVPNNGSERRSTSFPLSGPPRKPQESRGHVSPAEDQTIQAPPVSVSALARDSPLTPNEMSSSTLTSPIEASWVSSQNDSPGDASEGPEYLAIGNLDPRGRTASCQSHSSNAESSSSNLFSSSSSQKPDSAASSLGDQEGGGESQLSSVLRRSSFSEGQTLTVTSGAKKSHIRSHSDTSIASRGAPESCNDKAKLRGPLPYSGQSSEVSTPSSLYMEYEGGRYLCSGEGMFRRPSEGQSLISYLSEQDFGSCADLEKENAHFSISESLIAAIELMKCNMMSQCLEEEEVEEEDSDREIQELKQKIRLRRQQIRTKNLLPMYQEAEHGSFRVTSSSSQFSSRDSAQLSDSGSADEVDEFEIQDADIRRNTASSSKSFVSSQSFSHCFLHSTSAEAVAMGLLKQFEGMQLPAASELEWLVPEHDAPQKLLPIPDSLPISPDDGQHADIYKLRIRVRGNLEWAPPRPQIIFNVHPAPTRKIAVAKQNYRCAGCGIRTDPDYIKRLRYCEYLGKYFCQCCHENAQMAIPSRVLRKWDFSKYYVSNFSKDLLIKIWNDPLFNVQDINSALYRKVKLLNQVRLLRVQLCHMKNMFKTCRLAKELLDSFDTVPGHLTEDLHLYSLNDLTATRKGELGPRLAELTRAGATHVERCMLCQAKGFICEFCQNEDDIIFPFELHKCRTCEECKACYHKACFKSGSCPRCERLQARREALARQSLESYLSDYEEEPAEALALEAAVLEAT
Description: co-immunoprecipitation, HEK293T cells expressing GFP-IRGM.

Data set [1] deals with the molecule itself. Description: co-IP of differently tagged IRGM, HEK293T cells.
For another data set, the target named is T2, NOD1 (UniProt Q9Y239 1-953).
T2 construct: also called Flag-NOD1
T2 sequence (looked up): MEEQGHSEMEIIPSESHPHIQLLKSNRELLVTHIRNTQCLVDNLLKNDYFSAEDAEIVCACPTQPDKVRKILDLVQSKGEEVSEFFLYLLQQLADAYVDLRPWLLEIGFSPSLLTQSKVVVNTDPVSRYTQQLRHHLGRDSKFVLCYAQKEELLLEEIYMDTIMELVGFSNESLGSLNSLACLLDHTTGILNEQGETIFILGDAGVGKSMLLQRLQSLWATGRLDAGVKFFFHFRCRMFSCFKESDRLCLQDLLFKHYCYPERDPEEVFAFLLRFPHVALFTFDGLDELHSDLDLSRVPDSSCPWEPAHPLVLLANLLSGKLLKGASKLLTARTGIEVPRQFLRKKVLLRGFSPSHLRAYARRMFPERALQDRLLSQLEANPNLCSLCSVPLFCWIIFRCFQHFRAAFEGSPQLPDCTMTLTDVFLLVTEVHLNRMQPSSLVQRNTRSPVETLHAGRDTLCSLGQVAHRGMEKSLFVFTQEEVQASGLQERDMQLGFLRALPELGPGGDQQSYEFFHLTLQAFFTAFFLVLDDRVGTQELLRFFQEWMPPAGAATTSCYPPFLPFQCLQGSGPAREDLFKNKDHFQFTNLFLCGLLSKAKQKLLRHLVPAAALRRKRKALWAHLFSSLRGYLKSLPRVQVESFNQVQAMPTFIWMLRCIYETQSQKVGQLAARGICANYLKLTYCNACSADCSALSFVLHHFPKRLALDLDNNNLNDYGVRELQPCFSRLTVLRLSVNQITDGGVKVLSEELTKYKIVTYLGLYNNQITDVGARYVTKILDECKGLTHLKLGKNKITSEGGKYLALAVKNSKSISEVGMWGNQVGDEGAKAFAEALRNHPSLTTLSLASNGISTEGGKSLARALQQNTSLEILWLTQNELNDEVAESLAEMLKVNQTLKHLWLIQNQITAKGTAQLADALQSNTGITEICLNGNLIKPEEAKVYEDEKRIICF
Kind of data set: co-IP with anti-GFP, GFP-IRGM and Flag-NOD1.

B1: IRGM (human IRGM, isoform d) (other, UniProt A1A4Y4-4 1-202, looked up)
chain: MEAMNVEKASADGNLPEVISNIKETLKIVSRTPVNITMAGDSGNGMSTFISALRNTGHEGKASPPTELVKATQRCASYFSSHFSNVVLWDLPGTGSATTTLENYLMEMQFNRYDFIMVASAQFSMNHVMLAKTAEDMGKKFYIVWTKLDMDLSTGALPEVQLLQIRENVLENLQKERLACHEKYLKSTPENSTRPRNINLCS
notes: Stood in cell lysates as GFP-, Flag- or V5-tagged protein or as the endogenous protein, depending on the experiment; Isoform d is said to be used in all experiments; also called GFP-IRGM; GFP-IRGMd
Regarding B1, the binding result in the data set with Rubicon is “no binding”; in data set [1] it was “binds”; with NOD1, “binds”.

Source of the values: patent US20180236024A1 (STC UNM, published 2018).
